The values below come from a protein production outcome set (Wang et al. 2014).

The nature of the data set: label from the status in PepcDB records.
As to “MIHDDQKPSSSLDLQEIRIQIDSVDQQIQELINRRATLAEAVAKAKFASEENPLFYRPEREAQVLRKVMERNQGPLSDVTMARLFREIMSACLALEAPQSIAFLGPEGTFTQSAALKHFGKDAVVRPLPTIDEVFREVEAGSAHYGVVPVENSSEGVVNHTLDCFRTSQLNVIGEVELRIHHQFLVSHNTRKDSIKQIYAHQQALAQCRQWLDTHYPGVERVALSSNAEAARRIRNEWHSAAIASDIAASMYDLEIFHSNIEDNPENTTRFLVIGREKIPQSGNDKTSLLISAHDRAGALLEILAPFAKHKISLTSIETRPALPEKWAYVFFIDLEGHIEQENVAAAIDDIRPLVKELRILGSYPAAVL”, the protein production result is given as “failed”.
For the sequence “MRLIERYLFRQLLGPTLLATAALVALALLARSLSEFDVLVEQRQSALVFLKIILLALPQLLGIMMPLALFVAALVALNRLHTEQEIVVCFAGGMSRWRVISPAMRLAVIAALISLISGLWLQPWSARQIRETAFQIKTDVAATLVQPGQFTEPGPGLTVYAQSIDRDNKIQNLFIHQELPNGAASTYSSREAEIATRKGEPVLIMRHGSNQQFSRDGVLQYTSFDEYTFDLSSLFHSDELLHYKIADRYPHELFFPDLTQEWEQRNKDKLLAEGHSRFAGPLYNIALMSMALAAVLGGSFSRMGYGKRIAAVGAAAAIVRIVGFGVQAACEDDPWLNVLQYIVPLAATAWAMSQIFRQRVSPRRKTKPATPAPAFSGAA”, the protein production result is listed as “failed”.
Turning to “MSDLLFPIISMVLLVLAEAGVLQFTGRQKVDWLDVIFNINSGHMMLWLFRCLEVLCYGLVINHFSLGLFDNAPVILLWLFTILAWDFGFYWLHRWHHEMRPLWAVHVVHHQGEHYNLSLGVRNSWYSSLTSIPFFMLLAMLGVPLQIFLAVSIIHYSWQFFNHNALTPKLGWLEKVLITPSHHRVHHLNQKQYADTNYGGTFLLWDKLFGSYSAGPEYDVGYGVKNSRLSCNPMRESNLPFLRLMGFRSFGKAIEGRYQSSPWAVGAGVILLFMLVLGYIQQYGYGIEFITSEQAVLFVLLAAGSVALGGMSDGQHWGMILWCSVTLSLLYFIVYMCSWSTLLWKGLVGILLAHCLLFVIGVGRKSLRKQYEPV”, the protein production result is “failed”.
“MSVAETEIPIPAATPSLTDACVHCGFCLSDCPSYRVLGRETDSPRGRVYLMDSLQQGRIELSDTVVEHFDTCLGCLACTSACPSGVQYDQLIEEMRQRIAQEHRRPWPEAIWRKLLFAFLPYPERLRPILRLGQLYQSSGLQNWLNRQPLLQKFPQLAAASALLPPLSPASFQDNWPTLLPALGDRRYRVGLLLGCVQRLFNPEVNAAAIRVLRANGCDVVIPPQQGCCGAVAHHQGEMQQAQDLARAVIRSFEAENLDAILVTASGCGHTLKHYGAILADDPEWCDRAQQLADRVQDVQEFLATVGLTTPLHPLQEQPLVVVYQDACHMLHGQKIRNQPRQLLQQIPGIELREPVDAQLCCGSAGIYNLLQPAIAAELGQQKARSLAETGAQMIASANIGCYVQIRHHLQAQSKDLPVLHPLQIIDRAMNFQNH”: the protein production result is given as “failed”.
As for “MPGITFKEDANERGRQIEHWPLLKNGSIFVIADDGTRYFQEDAKHRHGHVYTHGSWLIPMNNQHPYLIFDQTQYDAFKQEESQAGQLPYPKFMTKLVSAPTIAQLAAKLGVPANNLQQTVTDFNHYTEVGRDFEFGRDPQTMRQLDDGPYYAIAALEHHHHHH”, the protein production entry is listed as “not failed”.
With “SLKGKIEWVRVSAVVHSTEDREKVGEAISTLFPFEFEIAVSKAKGHYGNPMEYLEVELTKSSEIKKFWKNLLELLGEQAEEILSTLEDRIDEQNVLHIRIDKQKAYLGEVSLTSGGDPIAVKLRLVTYPSKREKVIEFARELCTIS”, the protein production result was “not failed”.
In the case of “EEDWVLPSEVEVLESIYLDELQVIKGNGRTSPWEIYITLHPATAEDQDSQYVCFTLVLQVPAEYPHEVPQISIRNPRGLSDEQIHTILQVLGHVAKAGLGTAMLYELIEKGKEILTDNNIPHGQ”, the protein production entry is “not failed”.
For the sequence “MLAVKIFDRLPLALVITNASHSVLYANDAFKLMVCLQPDDILAFNPEQFFSPSEPHEIASLFNHLSEGKMWQGELVGLRNNGETFYLDLTVTVFRESHSADLGFAWLFSDVSERKKAAQLEHHHHHH”, the protein production entry is recorded as “not failed”.
To “MSNEHQLLVGLLKKLKDDALILPTLPEVAMRVQEVVGRPDSSLKQVAEIIGQDAAISARIIKVANSALYSRGVPAENINSAVTRIGLTQIKSIATSVAMEQLFISTNEMVWEVMDEVWRTSIDVTAAACSLLQIYNKKHPGSGLNYDTLTLAGLVHNIGALPVLTEAEAHPEMFTTIEHLRSLVRKMQGPIGRAVLKSWDFAPEVMEVVERWADLPYLGDHVSYLDFIRAAAFYTGELRAGNELEQRLDVFVKRGLPVSPEDLGSDAFLDSYHSIKASYE” belongs “not failed”.
Consider “VMQMDRQPLVDPFGDYFQEFLSNAQNGQFFTPFGVCELMNQLITAPKVSDQPKQGDRRVLDPACGSGRLLLSAAQKDRALTFVGIDISYTCCLMTIINLCLNSLNGEVLHMNALTDQYWHRWL”, for which the protein production result was “failed”.
In the case of “MLLKSIIPCMVKAFKFRLYPTTAQAVQLNQHIGSCRFVYNWALDQKIKTYEQTGKSISRFDLNKLIPTLKASNEWLGEVNSQSLQGMTKQVESAFTRFFRGKTGFPKFKSKKNPIQSFPVPQHYSVDFEKNTIKLPKIEPIKAVFHRKFEGELKTATVSRTCKGHYYISILVEDGKELPVKEAFAESTTIGIDVGIKDFAVLSNGEKIENPKYLKNSLKRLKVLQKRVSKKQKGSKNRAKAKQRLAVLHDKITNQRNDFQNKLSFKLISENQAVALETLNVKGMVKNHHLAQSISDSAWSSFVTKLEYKAEWFGKTILRIGQFEPSSKLCSVCGYHNKELQLKDREWTCPDCKTKHDRDINAAINIKKFALVDQNLIGLLEHHHHHH”, the protein production result was “not failed”.
Turning to “MSQMSPGQARVVDPILSTHARGYRQSTLIGKKLFPVAPVAQYGGKILTFGKEAFRLYNTKRAPGANTKRIDFGYEGDPYSIVPSALEAKVPRELMRDASQVPGIDLGARSVNTVLRIMALAHEHECAQIALDPAKYNADHKVKLVGSARWTSPDSDPTKDVETAKEAIADSIGMEPNRLMLSRKALSACKYHPKLIERVKYTRAESITIDMLKALWEVEEIVVGTARVATGANDSFGDVWGPDVWLGYVSDNPDPSVEEPSFGYTYQIEGHPLVEVPYWDNNAKSWIYGVSDDNTPALSGMLAGYLIEDAGLPAALEHHHHHH”, the protein production result was “not failed”.
Take “MSNARIGIDMSKIYAPKSIDLSSFQLPDEKLQTKYGLPHKVEFCKSCVISNQRPNSAVEYEHKKESKKHTIHFDDEGICDACRVAERKKSTINWEERDRQLRELCDRFRSKDGSYDCVVPGSGGKDSFYAAHILKYKYGMNPLTVTWAPHMYTPWGWRNFQSWIHAGFDNHLFTPNGRVHRLLTRLAVENLFHPFQPFMIGQKAYAPKMALLHKIKLVVYGENEAEYGNPIGDTESAKRDWKYFTADDKSKIFLGGTSVQELKSDFGLNDNDLDAYLPADPQQIEEQQVEVHYLGYYLKWHPQSCYYYSVEHGGFEASPERTPGTYSKYNSIDDKIDDFHYYTTLTKFGIGRATYDASQEIRSGDITVEEGVALVKRFDQEFPERFAEEIFKYLSINLKEFPIASQMFEQPIMDRAYFMALADTFRSPHLWKKDGEQWKLRHQVTNLEKTKAEYLDLETV”: the protein production entry is recorded as “not failed”.
Consider “MSKKRIIALILAVVIVLGGIIMSSISAVVSSLFSESTTSDTNPFTEKVEKEGNSSKRIAHLTLNGEITEGTGGGLFGGEGYNHEAFLKQLDNVKKDDSIKGVLLTVNTPGGGTYPSDEIYEKIKEIKQKHKKIYVHMDSMAASGGYYISAPADKIYAGPQTMTGSIGVIMSSIDYSGLQKNLGIKQNVIKSGEHKDILSSSREMTSEERDILQSVLDDSFNRFVNIVKDGRDMPESKVRKLADGRIYSAQQAKSNGLIDEIGYEDQTVKALKKDINAKDAEVFEYSTDGGWFSSMYNVKSSISQFTNEIKDVKSIITNDTKTEPMYLYEGLEHHHHHH”, for which the protein production result was “failed”.
With “RTVAQNASETTVSYDTDTAVLSEADVLRIALSENATVKVADMDVRKQEYARRAARADLFPKVDLNGVYSHTLKKQVLYIDMPGFSSSEGIEMGRTHNTQGGVNVSMPLVSAQLWKSIAMTGEQLDLALEKARSSRIDLVAEVKKAYLSVLLAEDSYGVFKRSYDNALANYKNISDKFDRGLVAEYDKIRANVQVRNIEPNLLQAQNSVALALWQLKVLMSMEVETPIRLSGSLSDYKEQVYTGYFAADTLISNNSSLRQLDIQRRLAVSADKLNKYSFLPTLNLGGQYTYSLNSNDIKFWGEGQR”, the protein production result is on record as “not failed”.
For “MKIRPFLVALGLTTFAGAAHGANFEDLTQLLSTKKCPLCDLRGAGLVMVNLTRADLTGADLSGANLSGADLTGANLSGANLTSASLNGANLSGANLNGAITDGTDFREAYFDRATFINTNLETAYMQGAKAVPNTAGTPQLFYGWGLLETSKGNYQSALNHYDQALALDPEFAPGYLGRGLTLLKIGNEASAKQNVEYAQLLFEENQDEVGVKTSEQFLEDLANMQEARRQGAGNPQLDAIVRGVASMAFKYLLPLVGL”, the protein production entry is “failed”.
Regarding “YRALFEHAIDGIFIMDAEGHYLDVNPAICSAIGYTRDEFLALDWGVLSRGVDSGWAAASLARIVGGEPLREERTVWTRNGDQLTVELSAHLLPDGKILGIARDVS”, the protein production result is “not failed”.
For the sequence “MVIPFISGTLCQFQLSRWLITQAPALPCGPKLGAPTRQRRGCKVAQLWMYFLALAVVYLLPGPDMILLLQTGARQGKAQALATALGLALSRGCHVALAALGLAALFKAAPWTFDLVRLAGAAYLLWIGIQCLRANLLPNLEPGTAAATPLRWREAIQRGLLTNLLNPKALLFCSVLLPQFVDPQAGAVVPQFMTLGVLLVAVGGLFDCCYALAGAGLGRWMQRSPSAQRVQQWLFGSLLIGFALRLTFVQQA”, the protein production entry was “failed”.
Under “SDPLYVPDPDPTKFPVNRNLTRKAGYLNARNKTGLVSSTWDRQFYFTQGGNLMSQARGDVAGGLAMDIDNCSVMAVDCEDRRYCFQITSFDGKKSSILQAESKKDHEEWICTINNISKQIYLSENPEETAARVNQSALEAVTPSPSFQQRHESLRPAAGQSRPPTART” stands “failed”; under “MGHHHHHHSHLCTNFFIFTGGPGSGKTAVLNELNTWGYLTVSEVARSIIQKQQADGGDAIHTGNRKAFRDLMLEQSIADYCKMQSEEKIVFFDRGIPDLYGYSKAFCGEASKEVNEAVGRFRYNKTVFIFPPWPEIYENDDERQQDYQEALQTYYAVKEGYFDCGYVLLEVPKCPIKDRANFIFQMISKNG”, “not failed”; under “MKNLNYGIIGLGKFGSVVADELIAGGHTVIVADKDEEALKSIQNPPSYAYILDSTNISALKEAGFHDVEVVIVSIGENVEKSILTLMALKDIGVKNIIAKATSNIHGQILSKLGATKVIYPEKESAKRLVKEFLTKDADYEVFDLSANTIRAIKINIDEKLAGNSLKHVAQNMKVISYKKLNSDWEILPDLETTTVYSGDVVILLGTVKELREFEH”, “failed”.
With “MLHFAHIFQNKVHTMNITKPFPLPTGYFGIPLGLAALSLAWFHLENLFPAARMVSDVLGIVASAVWILFILMYAYKLRYYFEEVRAEYHSPVRFSFIALIPITTMLVGDILYRWNPLIAEVLIWIGTIGQLLFSTLRVSELWQGGVFEQKSTHPSFYLPAVAANFTSASSLALLGYHDLGYLFFGAGMIAWIIFEPVLLQHLRISSLEPQFRATMGIVLAPAFVCVSAYLSINHGEVDTLAKILWGYGFLQLFFLLRLFPWIVEKGLNIGLWAFSFGLASMANSATAFYHGNVLQGVSIFAFVFSNVMIGLLVLMTIYKLTKGQFFLK”, the protein production result is given as “not failed”.
To “MNSTEITQNTDVPSHFRSIKTFVLRTGRMTEGQKRNYEAFYQKWCIPYTESPIDFQTLFQNDNPVIIEIGFGMGTATAQIAEDNPDKNYLGIEVFKAGVGKLLGEIEEKKLNNLRIIEHDAIEVLENMINNESVDGFHIFFPDPWQKKRNHKRRLVRRPRTDLLSKKLKDGGYIYMVTDWENYAEDAFEQLSETPNLKSKYEKFAPSQSWRPTTKFEKKGLKKEHVINELIFEKD” belongs “failed”.
